Assay results: paper PMC9756944

System: HupA (HU homologue) (Streptomyces coelicolor)
Experiment: EMSA (agarose)
Conditions: Buffer B: 50 mM NaH2PO4 pH 8.1, 300 mM NaCl, 10% glycerol, 0-40 uM HupA, 120 ng (3.6 nM) pUC19, 3 min room temperature then 15 min 37 C, 1% agarose in TAE …

| Substance | binding (bound at 15 uM HupA, 3.6 nM plasmid, 300 mM NaCl) | binding (relaxed by E. coli topoisomerase I (NEB), enzyme inactivated at 65 C) |
| --- | --- | --- |
| pUC19 negatively supercoiled | 15 µM |  |
| pUC19 relaxed by E. coli topoisomerase I |  | 40 µM |
